Patent US20230265215A1 (OMEROS, published 2023)

What was measured:
[1] = target: T1, Catalytically active MASP-2 (human) (human, UniProt O00187 16-686, limits assumed); test: SPR, immobilized OMS858, fluid phase MASP-2
T1 construct: also called catalytically active form of human MASP-2

Zymogen MASP-2 (human) = target: T2, Zymogen MASP-2 (human) (human, UniProt O00187 16-686, limits assumed); test: SPR, immobilized OMS858, fluid phase MASP-2
T2 construct: also called zymogen form of human MASP-2

MASP-3 = target: T3, MASP-3 (human, UniProt P48740-2 20-728, limits assumed); test: solid phase ELISA, against human MASP-2 as reference
T3 construct: Species read from 'Recombinant human MASP-2 or C1r, C1s, CFD, MASP-1 and MASP-3'
T3 sequence (looked up): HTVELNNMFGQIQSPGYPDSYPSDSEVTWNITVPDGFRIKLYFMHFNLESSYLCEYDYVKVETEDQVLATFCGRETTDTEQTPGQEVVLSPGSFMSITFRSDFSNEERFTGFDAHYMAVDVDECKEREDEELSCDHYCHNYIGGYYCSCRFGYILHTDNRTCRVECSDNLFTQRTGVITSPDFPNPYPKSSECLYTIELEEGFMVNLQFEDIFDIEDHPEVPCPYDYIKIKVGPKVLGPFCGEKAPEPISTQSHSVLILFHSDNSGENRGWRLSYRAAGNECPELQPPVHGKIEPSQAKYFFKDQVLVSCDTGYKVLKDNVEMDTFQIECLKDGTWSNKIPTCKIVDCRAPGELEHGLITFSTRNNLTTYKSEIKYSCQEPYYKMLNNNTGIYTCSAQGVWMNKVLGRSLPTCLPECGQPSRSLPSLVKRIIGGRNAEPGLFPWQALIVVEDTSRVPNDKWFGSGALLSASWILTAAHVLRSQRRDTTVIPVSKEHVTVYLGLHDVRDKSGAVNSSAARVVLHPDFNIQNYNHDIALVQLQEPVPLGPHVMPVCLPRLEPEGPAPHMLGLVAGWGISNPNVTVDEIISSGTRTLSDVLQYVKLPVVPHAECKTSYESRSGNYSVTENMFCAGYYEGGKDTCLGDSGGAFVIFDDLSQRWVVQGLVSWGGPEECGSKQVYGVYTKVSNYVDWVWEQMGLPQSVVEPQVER
Source text: (§1) The apparent dissociation constant (KD) was estimated by nonlinear regression using a 4-parameter logistic model.
(§2) Fold selectivity calculated as KD(related serine protease)/mean KD(MASP-2).

C1r = target: T4, C1r (human, UniProt P00736 18-705, limits assumed); test: as above
T4 construct: Species read from 'Recombinant human MASP-2 or C1r, C1s, CFD, MASP-1 and MASP-3'
T4 sequence (looked up): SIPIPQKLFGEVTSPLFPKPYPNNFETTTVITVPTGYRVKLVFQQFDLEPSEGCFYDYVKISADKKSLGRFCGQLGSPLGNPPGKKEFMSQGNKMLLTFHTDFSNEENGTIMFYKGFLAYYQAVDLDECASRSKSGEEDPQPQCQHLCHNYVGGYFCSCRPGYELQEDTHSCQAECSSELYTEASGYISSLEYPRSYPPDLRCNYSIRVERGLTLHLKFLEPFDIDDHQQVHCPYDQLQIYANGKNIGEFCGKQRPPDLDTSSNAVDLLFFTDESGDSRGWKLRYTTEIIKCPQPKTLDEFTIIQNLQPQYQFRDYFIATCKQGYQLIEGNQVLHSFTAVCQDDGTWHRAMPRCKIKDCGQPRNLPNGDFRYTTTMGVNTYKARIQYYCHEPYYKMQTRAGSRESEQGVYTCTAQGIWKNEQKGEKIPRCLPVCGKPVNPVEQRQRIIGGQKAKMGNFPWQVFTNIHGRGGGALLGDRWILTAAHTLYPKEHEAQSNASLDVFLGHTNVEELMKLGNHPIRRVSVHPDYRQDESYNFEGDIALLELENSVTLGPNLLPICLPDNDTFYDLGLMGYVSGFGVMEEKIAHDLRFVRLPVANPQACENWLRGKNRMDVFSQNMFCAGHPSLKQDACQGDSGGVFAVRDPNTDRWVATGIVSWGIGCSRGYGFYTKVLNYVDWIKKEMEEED
Source text: as §1, §2

C1s = target: T5, C1s (human, UniProt P09871 16-688, limits assumed); test: as above
T5 construct: Species read from 'Recombinant human MASP-2 or C1r, C1s, CFD, MASP-1 and MASP-3'
T5 sequence (looked up): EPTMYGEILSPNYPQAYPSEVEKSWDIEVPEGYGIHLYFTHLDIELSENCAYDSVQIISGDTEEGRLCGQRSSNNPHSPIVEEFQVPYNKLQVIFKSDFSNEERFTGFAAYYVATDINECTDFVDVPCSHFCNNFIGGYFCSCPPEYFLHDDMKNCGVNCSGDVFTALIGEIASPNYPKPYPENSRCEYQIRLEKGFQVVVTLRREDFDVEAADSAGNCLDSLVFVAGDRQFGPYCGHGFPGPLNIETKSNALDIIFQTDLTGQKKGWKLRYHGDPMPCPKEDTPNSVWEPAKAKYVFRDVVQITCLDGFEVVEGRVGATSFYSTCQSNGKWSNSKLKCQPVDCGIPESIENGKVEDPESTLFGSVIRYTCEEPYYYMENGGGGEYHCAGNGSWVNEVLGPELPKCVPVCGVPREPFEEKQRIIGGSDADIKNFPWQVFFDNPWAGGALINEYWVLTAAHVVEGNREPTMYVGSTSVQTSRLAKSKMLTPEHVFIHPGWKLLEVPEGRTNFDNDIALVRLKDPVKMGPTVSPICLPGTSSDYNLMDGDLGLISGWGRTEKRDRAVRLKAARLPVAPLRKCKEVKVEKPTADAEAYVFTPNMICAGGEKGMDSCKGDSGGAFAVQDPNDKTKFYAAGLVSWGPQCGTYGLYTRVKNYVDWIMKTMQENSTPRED
Source text: as §1, §2

CFD = target: T6, CFD (human, UniProt P00746 26-253, limits assumed); test: as above
T6 construct: Species read from 'Recombinant human MASP-2 or C1r, C1s, CFD, MASP-1 and MASP-3'; also called factor D; complement factor D
Source text: as §1, §2

T1 sequence (O00187 16-686 limits assumed): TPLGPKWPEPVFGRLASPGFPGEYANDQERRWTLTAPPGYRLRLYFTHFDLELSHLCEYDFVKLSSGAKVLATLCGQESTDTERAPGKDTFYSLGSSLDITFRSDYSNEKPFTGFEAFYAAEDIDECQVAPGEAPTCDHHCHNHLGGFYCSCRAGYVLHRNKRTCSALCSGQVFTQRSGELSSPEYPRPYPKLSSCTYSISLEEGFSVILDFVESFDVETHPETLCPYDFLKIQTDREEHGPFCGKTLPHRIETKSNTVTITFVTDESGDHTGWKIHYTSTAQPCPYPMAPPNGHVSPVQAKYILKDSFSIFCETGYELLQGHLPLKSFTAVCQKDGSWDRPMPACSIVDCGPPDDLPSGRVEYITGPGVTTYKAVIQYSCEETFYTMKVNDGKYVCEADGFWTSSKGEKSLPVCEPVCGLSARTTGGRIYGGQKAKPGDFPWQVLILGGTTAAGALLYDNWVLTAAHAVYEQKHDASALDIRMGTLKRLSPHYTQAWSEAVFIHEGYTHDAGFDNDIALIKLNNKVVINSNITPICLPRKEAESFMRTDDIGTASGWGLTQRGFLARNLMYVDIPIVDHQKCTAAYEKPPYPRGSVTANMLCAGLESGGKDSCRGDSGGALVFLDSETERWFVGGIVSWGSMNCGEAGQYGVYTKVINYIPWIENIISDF
T2 sequence (O00187 16-686 limits assumed): as above
T6 sequence (P00746 26-253 limits assumed): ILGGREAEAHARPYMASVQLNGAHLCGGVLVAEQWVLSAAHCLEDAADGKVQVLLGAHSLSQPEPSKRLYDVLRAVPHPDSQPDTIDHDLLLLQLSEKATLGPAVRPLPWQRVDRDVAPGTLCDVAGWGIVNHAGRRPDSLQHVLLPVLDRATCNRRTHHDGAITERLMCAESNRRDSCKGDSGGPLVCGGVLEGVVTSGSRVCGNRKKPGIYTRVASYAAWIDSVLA

B1: mAb OMS858 (humanized anti-MASP-2 antibody) (antibody, V domains shown)
VH: QVQLVQSGAEVKKPGASVKVSCKASGYTFTNHHMHWLRQAPGQGLEWIGDIDASDSETHYIEKFKDRATLTIDKSSSTAYMELSSLRSEDTAVYYCARGDITTTLRYFDVWGQGTLVTVSS
VL: DIQLTQSPSSLSASVGDRVTITCSASSSVRYMYWYQQKPGKAPKLLIYDTSNLASGVPSRFSGSGSGTDNTLTISSLQPEDFATYYCQQWSSYPLTFGQGTKVEIKR
notes: also called antibody OMS858; biotinylated OMS858
Kd [1]: 0.287 nM
koff [1]: 0.00971 s⁻¹
kon [1]: 3.38e+07 M⁻¹ s⁻¹
Kd (Zymogen MASP-2 (human)): 0.715 nM
koff (Zymogen MASP-2 (human)): 0.000172 s⁻¹
kon (Zymogen MASP-2 (human)): 241000 M⁻¹ s⁻¹
Fold selectivity (KD related serine protease / mean KD MASP-2) (MASP-3): > 2000 fold
Fold selectivity (KD related serine protease / mean KD MASP-2) (C1r): > 2000 fold
Fold selectivity (KD related serine protease / mean KD MASP-2) (C1s): > 2000 fold
Fold selectivity (KD related serine protease / mean KD MASP-2) (CFD): > 2000 fold
